Test results taken from US20080311122A1 (AstraZeneca / MedImmune, published 2008).
No end group written: not given here.

T1: HMG1 purified from bovine (calf) thymus (bovine, UniProt P10103 2-215)
T1 construct: also called Calf thymus HMGB1; thymus HMG1
T1 sequence (looked up): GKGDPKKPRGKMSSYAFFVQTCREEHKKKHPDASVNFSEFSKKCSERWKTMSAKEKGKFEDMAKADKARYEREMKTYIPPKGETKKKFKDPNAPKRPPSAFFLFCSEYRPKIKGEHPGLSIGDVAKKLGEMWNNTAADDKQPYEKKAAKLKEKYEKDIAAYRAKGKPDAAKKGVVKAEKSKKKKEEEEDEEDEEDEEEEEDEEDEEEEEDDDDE

T2: 106-123 (also: biotinylated, site not given here)
T2 construct: Bar group label on the sheet
T2 peptide: CSEYRPKIKGEHPGLSIG

T3: HMG1 B Box peptide amino acids 91-169
T3 construct: also called HMG1 peptide 91-169
T3 peptide: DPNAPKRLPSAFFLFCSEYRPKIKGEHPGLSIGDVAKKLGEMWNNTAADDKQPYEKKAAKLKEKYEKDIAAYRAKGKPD

T4: recombinant HMG1 purified from E. coli as a calmodulin binding protein (CBP) fusion protein (human, UniProt A9RA84 1-215 (Papio anubis entry))
T4 construct: also called rHMG1; rHMGB1
T4 sequence: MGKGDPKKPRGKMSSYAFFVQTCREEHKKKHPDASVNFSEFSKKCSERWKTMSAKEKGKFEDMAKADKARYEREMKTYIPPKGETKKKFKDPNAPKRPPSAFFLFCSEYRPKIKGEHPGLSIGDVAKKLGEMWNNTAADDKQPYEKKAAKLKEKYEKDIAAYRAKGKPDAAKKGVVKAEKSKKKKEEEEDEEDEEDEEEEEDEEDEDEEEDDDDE

T5: HMGB1 peptide 166-183 (UniProt P09429 166-183, also: biotinylated, site not given here)
T5 peptide (looked up): GKPDAAKKGVVKAEKSKK

B1: anti-HMG1 antibody G4 (antibody, V domains shown)
VH: EVQLLESGGGLVQPGGSLRLSCAASGFTFSWYDMTWVRQAPGKGLEWVSSISPSGGYTKYADSVKGRFTISRDNSKNTLYLQMNSLRAEDTAVYYCTTEFYDYLDVWGKGTTVTVSS
VL: DIQMTQSPGTLSLSPGEGATLSCRASQSVSSTYLAWYQQKPGQAPRLLIYEASKRATGTPARFSGSGSGTDFTLSISSLEPEDFAVYYCQHRHNWPPQWTFGQGTKVEVK
notes: also called ATCC PTA-6258
B2: anti-HMG1 antibody S16 (antibody, V domains shown)
VH: EVQLLESGGGLVQPGGSLRLSCAASGFTFSWYSMLWVRQAPGKGLEWVSYISPSGGFTNYADSVKGRFTISRDNSKNTLYLQMNSLRAEDTAVYYCARWDYNSGWYYDHWGQGTLVTVSS
VL: DIQMTQSPDTLSLSPGERATLSCRASQSVNSRNLAWYQQKPGQAPRLLIYGASTRATGIPDRFSGSVSGTEFTLTISSLQPDDFATYYCQQYNSYFTFGQGTKLEIK
notes: also called ATCC PTA-6259
B3: anti-HMG1 antibody S6 (antibody, V domains shown)
VH: EVQLLESGGGLVQPGGSLRLSCAASGFTFSWYDMSWVRQAPGKGLEWVSRISPSGGYTMYADSVKGRFTISRDNSKNTLYLQMNSLRAEDTAVYYCARLEVGATSGGTAFDIWGQGTMVTVSS
VL: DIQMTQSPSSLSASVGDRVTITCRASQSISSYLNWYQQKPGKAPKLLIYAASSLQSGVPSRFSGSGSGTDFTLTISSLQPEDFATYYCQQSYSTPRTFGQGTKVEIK
notes: also called ATCC PTA-6143
B4: anti-HMG1 antibody S2 (antibody, V domains shown)
VH: EVQLLESGGGLVQPGGSLRLSCAASGFTFSGYMMVWVRQAPGKGLEWVSRISPSGGQTGYADSVKGRFTISRDNSKNTLYLQMNSLRAEDTAVYYCAREEGGSYGAFDIWGQGTMVTVSS
VL: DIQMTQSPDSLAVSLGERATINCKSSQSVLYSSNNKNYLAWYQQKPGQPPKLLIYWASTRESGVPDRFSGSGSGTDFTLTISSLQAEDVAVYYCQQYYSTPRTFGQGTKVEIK
notes: also called ATCC PTA-6142

Columns and labels:
[1] = target: T1, HMG1 purified from bovine (calf) thymus; assay: ELISA, wells coated with calf thymus HMGB1 at 5 ug/mL, antibody at 10 ug/mL, anti-human kappa/lambda-HRP, OD 490
Summary of the method: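 Calf thymus HMGB1 or HMGB2 coated at 5 ug/mL in 10 mM PBS pH 7.2 overnight at 4 °C; anti-HMGB1 antibody added at 10 ug/mL final in PBS + 1% BSA, 1 h at room temperature. Detection with HRP anti-human kappa plus lambda (1:1000, 1 h), OPD substrate 20-30 min in the dark, H₂SO₄ stop, absorbance 490 nm.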

106-123 = target: T2, 106-123; assay: ELISA on biotinylated HMGB1 peptides captured on NeutrAvidin, antibody in serial dilution from 10 ug/ml, anti-human IgG-HRP, OD 450
Procedure: (§1) The plate was then blocked with 4% milk powder dissolved in PBS at 37° C. for 1 hour. The blocking solution was removed and replaced with human anti-HMG1 antibodies at various concentrations (see FIGS. 5A-B). […] HRP activity was detected with Sureblue HRP substrate (KPL). Plates were read at 450 nm using a Kinetic Microplate Reader (Molecular Devices). […] After washing and blocking with 1% BSA in PBS, the biotinylated peptides were individually added into the avidin coated wells and incubated for 30 min at room temperature. The serial diluted antibody G4, S16 and S6 at the initial concentration at 10 μg/ml were then transferred into the wells followed by adding mouse anti human IgG-HRP conjugate (Pierce). Detection was accomplished by adding 50 μl of tetramethylbenzidine (TMB) substrate (KPL) and the absorbance was read at […].

[2] = target: T3, HMG1 B Box peptide amino acids 91-169; assay: ELISA, wells coated with HMG1 B Box peptide 91-169 at 10 ug/ml, anti-human IgG-HRP, OD 450
Procedure: as §1

[3] = target: T4, recombinant HMG1 purified from E. coli …; assay: sandwich ELISA: antibody captured on anti-human IgG Fc, rHMG1 2 ug/ml in solution, mouse anti-HMGB1 and anti-mouse IgG-HRP, OD 450
Procedure: Sandwich ELISA (soluble HMG1): Immunoplates (EIA/RIA plate, High binding, Costar) were coated with anti human IgG Fc at 10 μg/ml in PBS (pH 7.2) and incubated at 4° C. overnight. The coating reagent was removed and the plates were rinsed briefly with PBS. The plates were then blocked with 4% milk for 1 hour at 37° C. and rinsed with PBS. The anti-HMG1 antibodies were diluted in 4% milk. For serial dilutions, the antibodies were used at a starting concentration of 20 μg/ml. The diluted anti-HMG1 antibodies were then added into plate and incubated for 1 hr at 37° C. The plate was then washed 10 times with PBST (PBS/0.1% tween 20) and incubate with antigen (HMGB1, 2 μg/ml; or 0.7 μg/ml for native HMGB1) in 4% milk and incubated at 37° C. for 1 h. The plate was then wash 10 times and incubated with mouse anti-HMGB1, 1 μg/ml in 4% milk at 37° C. for 1 h. The plate was washed 10 times and incubated with anti-mouse IgG-HRP at 1:1000 at 37° C. for 1 h. The plate was then washed and developed. HRP activity was detected with Sureblue HRP substrate (KPL). Plates were read at 450 nm using a Kinetic Microplate Reader (Molecular Devices).

HMGB1 peptide 166-183 = target: T5, HMGB1 peptide 166-183; assay: ELISA on biotinylated HMGB1 peptides captured on NeutrAvidin, antibody in serial dilution from 10 ug/ml, anti-human IgG-HRP, OD 450
Procedure: as §1

[4] = target: T3, HMG1 B Box peptide amino acids 91-169; assay: ELISA, wells coated with HMG1 B Box peptide 91-169 at 10 ug/ml
Summary of the method: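 Biotinylated peptides captured on avidin-coated wells (1% BSA block, 30 min, room temperature), then antibodies added in serial dilution from 10 μg/ml; for the coated-peptide format, plates blocked with 4% milk/PBS 1 h at 37 °C. Bound antibody detected with anti-human IgG-HRP and TMB, absorbance at 450 nm.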

Binder	binding result [1]	binding result (106-123)	binding result [2]	EC50 (read off the curve) [3] [µg/mL]	binding result (HMGB1 peptide 166-183)	binding result [4]
B1	binds	binds	binds	–	–	–
B2	binds	–	binds	~0.08	binds	–
B3	binds	–	–	–	–	no binding (tested: 10 ug/ml (log 1.00))
B4	binds	–	–	~0.08	–	no binding (tested: 10 ug/ml (log 1.00))
